We go through five molecules from patent US20250250357A1 (NANJING ZAIMING PHARMACEUTICAL, published 2025).

To fix the notation:
B1: S009-F4-94.15 (antibody, human IgG1, kappa, V domains shown)
VH: QVQLHQPGAELVRPGSSVKLSCKASGYTFTSYWVHWVQQRPRQGLEWIGNIDPSDSEIHYNQKFKDKATLTVDKSSSTAYIHLSRLTSEDSAIYYCVRGGVPWFAYWGQGTLVTVSA
VL: QIVLTQSPAIMSASPGEKVTLTCSASSSVSSTYLYWFQQKPGSSPKVWIYSTSNLASGVPARFSGSGSGTSYSLTISSMEAEDAASYFCHQWISYPYTFGGGTKLEIKR
notes: Human-murine chimeric antibody, human IgG1/kappa constant regions
B2: S009-F5-9.16 (antibody, human IgG1, kappa, V domains shown)
VH: EVQLRQSGPVLVKPGASVKMSCKASGYTFTDYFMNWVKPSHGKSLEWIGVINPSNGVINYNQRFKGKATLTVDKSSSTAYMELNSLTSEDSAVYYCARSYDFAWFAYWGQGTLVTVSA
VL: DVLMTQTPLSLPVSLGDQASISCRSSQNIVHSNGNTYLEWYLQKPGQSPKLLIYTVSNRFSGVPDRFSGSGSGTDFTLKISRVEAEDLGVYYCFQGSHVPYTFGGGTKLEIKR
notes: as for B1
B3: S009-F6-76.1 (antibody, human IgG1, kappa, V domains shown)
VH: QVQLQQSGPELVKPGASVKISCKASGYTFTDYYINWVKQRPGQGLEWIGWIFPGRGSTFYYEKFKGKATLTVDKSSSTAYMLLSSLTSEDSAVYFCARRGDSAGYEDLDYWGQGTSVTVSS
VL: NIVMTQSPKFMSMSVGERVTLSCKASENVVTYVSWYQQKPKQSPKLLIYGASKRYTGVPDRFTGSGSATDFTLTISSVQAEDLGDYHCGQSYSYPYTFGGGTKLEIKR
notes: as for B1
B4: S009-F4-127.10 (antibody, human IgG1, kappa, V domains shown)
VH: EVQLQQSGPVLVKPGASVKMSCKASGYTFTDYYMNWVKQSHGKSPEWIGVINPYNDVISYNQKFKGKATLTVDKSSSTAYMELNSLTSEDSAVYYCANYGSSYYAMDYWGQGTSVTVSS
VL: DVVMTQTPLSLSVSLGDQASISCRSSQSLVHSNGNTYLQWSLQKPGQSPNLLIYKVSNRFSGVPDRFSGSGSGTDFTLKISRVEAEDLGVYFCSQTTHVPFTFGGGTKLEIRR
notes: as for B1
B5: F7.44.20 (scFv)
chain: EVQLQQSGPELVKPGASVKIPCKASGYTFTDYNMDWVKQSHGKSLEWIGDINPSTGGTIYNQKFNGKATLTEDKSASTVYMEFRSLTSDDTAVYYCARRRIGTGYFDVWGTGTTVTVSSGGGGSGGGGSGGGGSQIVLTQSPALMSASPGEKVTLTCSASSSVISSYLSWYQQKPGSSPKLLIYRTSNLASGVPARFSGSGSGTSYSLTISSMEAEDAASYFCHQWSSFPYTFGGGTKLEIK

T1 sequence (Q13421 other isoform, or with tags, fused parts or gaps): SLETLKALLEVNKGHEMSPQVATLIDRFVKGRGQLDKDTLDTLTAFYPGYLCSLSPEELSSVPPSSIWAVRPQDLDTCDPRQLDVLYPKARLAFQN
T2 sequence (Q13421 other isoform, or with tags, fused parts or gaps): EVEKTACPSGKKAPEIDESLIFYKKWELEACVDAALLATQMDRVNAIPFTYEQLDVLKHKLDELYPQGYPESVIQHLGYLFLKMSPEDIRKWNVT
human MSLN on OVCAR3 tumor cells, sequence (Q13421 other isoform, or with tags, fused parts or gaps): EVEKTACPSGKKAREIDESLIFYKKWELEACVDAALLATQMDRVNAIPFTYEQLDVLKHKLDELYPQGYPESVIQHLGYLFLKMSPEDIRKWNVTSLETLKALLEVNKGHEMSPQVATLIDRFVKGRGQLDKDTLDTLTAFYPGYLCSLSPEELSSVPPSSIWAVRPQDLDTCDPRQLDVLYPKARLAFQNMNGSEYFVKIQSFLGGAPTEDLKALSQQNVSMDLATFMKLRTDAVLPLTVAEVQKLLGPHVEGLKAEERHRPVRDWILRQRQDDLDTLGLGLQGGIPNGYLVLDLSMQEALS

One test concerns the target T1, human MSLN-R2-his protein (human, UniProt Q13421 391-486).
T1 construct: also called human MSLN-R2 protein; hMSLN-R2-his; not shown: His tag
Briefly: ELISA, coated antigen; antibody 10 nM.
Regarding B1, the OD450 amounted to 0.06 OD450.

In turn, B2 returned an OD450 of 0.06 OD450.

Regarding B3, the OD450 worked out at 0.2 OD450.

The molecule B4 gave an OD450 of 0.06 OD450.

A further test deals with T1, human MSLN-R2-his protein. The experiment in a line: ELISA, coated antigen; antibody 0.01 nM.
In turn, B1 showed an OD450 of 0.05 OD450.

For the molecule B2, the OD450 was determined as 0.04 OD450.

On to B3, for which the OD450 worked out at 0.04 OD450.

For B4, the OD450 turned out to be 0.05 OD450.

Another test has as its target T2, human MSLN-R1-his protein (human, UniProt Q13421 296-390).
T2 construct: also called human MSLN-R1 protein; hMSLN-R1-his; not shown: His tag
Briefly: ELISA, coated antigen; antibody 0.001 nM.
B1 gave an OD450 of 0.05 OD450.

Take B2: the OD450 stood at 0.04 OD450.

Take B3: the OD450 amounted to 0.04 OD450.

In the case of B4, the OD450 came out at 0.05 OD450.

A further test deals with T3, human MSLN-FL-his protein (human, UniProt Q13421 296-580).
T3 construct: also called human MSLN full-length protein; hMSLN-FL-his; not shown: His tag
T3 sequence (Q13421 other isoform, or with tags, fused parts or gaps): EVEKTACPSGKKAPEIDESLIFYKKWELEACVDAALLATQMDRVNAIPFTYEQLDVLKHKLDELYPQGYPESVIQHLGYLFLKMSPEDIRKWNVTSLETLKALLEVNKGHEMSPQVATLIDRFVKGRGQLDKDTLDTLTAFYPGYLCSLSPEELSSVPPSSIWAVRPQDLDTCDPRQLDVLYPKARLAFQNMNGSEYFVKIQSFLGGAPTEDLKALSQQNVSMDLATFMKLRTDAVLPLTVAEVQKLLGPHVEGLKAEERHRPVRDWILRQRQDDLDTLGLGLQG
The experiment in a line: ELISA, coated antigen; antibody 0.01 nM.
Molecule B1 displayed an OD450 of 0.57 OD450.

Take B2: the OD450 was found to be 0.04 OD450.

For the molecule B3, the OD450 was 1.09 OD450.

Molecule B4 had an OD450 of 0.06 OD450.

Another test has as its target T1, human MSLN-R2-his protein. The experiment in a line: ELISA, coated antigen; antibody 0.0001 nM.
In turn, B1 displayed an OD450 of 0.06 OD450.

B2 returned an OD450 of 0.04 OD450.

With B3, the OD450 is 0.05 OD450.

The molecule B4 came in with an OD450 of 0.06 OD450.

A further test deals with T3, human MSLN-FL-his protein. Briefly: ELISA, coated antigen; antibody 100 nM.
For B1, the OD450 stood at 1.9 OD450.

Consider B2, for which the OD450 stood at 1.12 OD450.

Molecule B3 came in with an OD450 of 2.83 OD450.

The molecule B4 gave an OD450 of 0.21 OD450.

The target of the next test is T2, human MSLN-R1-his protein. The experiment in a line: ELISA, coated antigen; antibody 0.1 nM.
On to B1, for which the OD450 was 0.05 OD450.

As for B2, the OD450 came to 0.04 OD450.

Regarding B3, the OD450 worked out at 0.04 OD450.

Take B4: the OD450 was found to be 0.05 OD450.

The target of the next test is T3, human MSLN-FL-his protein. The experiment in a line: ELISA, coated antigen; antibody 0.001 nM.
The molecule B1 displayed an OD450 of 0.13 OD450.

B2: the OD450 amounted to 0.04 OD450.

Take B3: the OD450 is 0.29 OD450.

Consider B4, for which the OD450 was determined as 0.06 OD450.

In another test the target is T1, human MSLN-R2-his protein. Briefly: ELISA, coated antigen; antibody 100 nM.
With B1, the OD450 worked out at 0.07 OD450.

Molecule B2 returned an OD450 of 0.13 OD450.

In turn, B3 gave an OD450 of 0.33 OD450.

B4 returned an OD450 of 0.09 OD450.

The target of the next test is T2, human MSLN-R1-his protein. Briefly: ELISA, coated antigen; antibody 100 nM.
B1 had an OD450 of 0.07 OD450.

B2 gave an OD450 of 0.09 OD450.

Molecule B3 showed an OD450 of 0.06 OD450.

For the molecule B4, the OD450 turned out to be 0.08 OD450.

For a further test, the target named is T1, human MSLN-R2-his protein. The experiment in a line: ELISA, coated antigen; antibody 0.1 nM.
Molecule B1 showed an OD450 of 0.05 OD450.

The molecule B2 yielded an OD450 of 0.04 OD450.

Regarding B3, the OD450 turned out to be 0.07 OD450.

Molecule B4 had an OD450 of 0.05 OD450.

The target of a further test is T3, human MSLN-FL-his protein. Briefly: ELISA, coated antigen; antibody 0.0001 nM.
Molecule B1 had an OD450 of 0.06 OD450.

Turning to B2, the OD450 was determined as 0.04 OD450.

B3 had an OD450 of 0.1 OD450.

For the molecule B4, the OD450 worked out at 0.06 OD450.

A further test concerns the target human MSLN on OVCAR3 tumor cells (human, UniProt Q13421 296-598). The experiment in a line: FACS, OVCAR3 cells.
B5 returned an EC50 of 2.42 nM and a Maximum_MFI of 1600 MFI.

Another test has as its target T4, monkey MSLN on HEK293T-monkey MSLN recombinant cells (monkey).
T4 construct: Full-length precursor as transfected; processing on the cell is not described; also called HEK293-monkey MSLN
T4 chain: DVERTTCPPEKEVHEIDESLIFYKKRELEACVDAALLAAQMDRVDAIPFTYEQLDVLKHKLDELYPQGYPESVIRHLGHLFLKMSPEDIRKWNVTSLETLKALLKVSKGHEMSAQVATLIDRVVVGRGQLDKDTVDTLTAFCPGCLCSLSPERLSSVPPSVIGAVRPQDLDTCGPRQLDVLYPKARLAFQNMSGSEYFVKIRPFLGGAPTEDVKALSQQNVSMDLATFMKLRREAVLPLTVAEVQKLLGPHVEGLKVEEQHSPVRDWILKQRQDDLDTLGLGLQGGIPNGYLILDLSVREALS
The experiment in a line: FACS, HEK293T-monkey MSLN cells.
Take B5: the EC50 was determined as 8.38 nM and the Maximum_MFI turned out to be 7040 MFI.

For another test, the target named is T1, human MSLN-R2-his protein. The experiment in a line: ELISA, coated antigen; no antibody (blank, column 'none').
B1 displayed an OD450 of 0.07 OD450.

As for B2, the OD450 was 0.05 OD450.

For the molecule B3, the OD450 turned out to be 0.05 OD450.

As to B4, the OD450 was determined as 0.06 OD450.

The target in the next test is T3, human MSLN-FL-his protein. Briefly: ELISA, coated antigen; antibody 10 nM.
As to B1, the OD450 was determined as 1.84 OD450.

B2 displayed an OD450 of 0.19 OD450.

As to B3, the OD450 is 2.87 OD450.

Turning to B4, the OD450 is 0.09 OD450.

The target of the next test is T2, human MSLN-R1-his protein. Briefly: ELISA, coated antigen; antibody 10 nM.
For the molecule B1, the OD450 was 0.06 OD450.

In turn, B2 yielded an OD450 of 0.05 OD450.

B3 registered an OD450 of 0.04 OD450.

Regarding B4, the OD450 turned out to be 0.06 OD450.

For a further test, the target named is T2, human MSLN-R1-his protein. Briefly: ELISA, coated antigen; antibody 1 nM.
In turn, B1 gave an OD450 of 0.05 OD450.

As for B2, the OD450 is 0.04 OD450.

Molecule B3 yielded an OD450 of 0.04 OD450.

Molecule B4 had an OD450 of 0.05 OD450.

The next test concerns the target T3, human MSLN-FL-his protein. The experiment in a line: ELISA, coated antigen; antibody 1 nM.
Molecule B1 gave an OD450 of 1.79 OD450.

As to B2, the OD450 turned out to be 0.06 OD450.

B3 yielded an OD450 of 2.87 OD450.

Regarding B4, the OD450 was 0.06 OD450.

The next test deals with T1, human MSLN-R2-his protein. The experiment in a line: ELISA, coated antigen; antibody 0.001 nM.
In the case of B1, the OD450 amounted to 0.05 OD450.

Molecule B2 registered an OD450 of 0.04 OD450.

In turn, B3 came in with an OD450 of 0.04 OD450.

As to B4, the OD450 was determined as 0.05 OD450.

The target of a further test is T5, human MSLN-R3 on HEK293T-hMSLN-R3 recombinant cells (human, UniProt Q13421 487-606).
T5 construct: the C-terminal limit is uncertain; also called human MSLN-R3 membrane protein
T5 sequence (Q13421 495-614): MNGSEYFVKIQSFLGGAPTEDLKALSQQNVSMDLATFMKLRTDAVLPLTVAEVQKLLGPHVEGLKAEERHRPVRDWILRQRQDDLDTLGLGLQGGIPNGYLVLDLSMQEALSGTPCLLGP
Briefly: FACS, HEK293T-hMSLN-R3 cells.
With B5, the EC50 is 1.27 nM and the Maximum_MFI stood at 1450 MFI.

A further test addresses T1, human MSLN-R2-his protein. The experiment in a line: ELISA, coated antigen; antibody 1 nM.
For B1, the OD450 was found to be 0.05 OD450.

Consider B2, for which the OD450 is 0.04 OD450.

Regarding B3, the OD450 was 0.12 OD450.

As for B4, the OD450 stood at 0.05 OD450.

The target of a further test is T2, human MSLN-R1-his protein. Briefly: ELISA, coated antigen; antibody 0.0001 nM.
For the molecule B1, the OD450 turned out to be 0.05 OD450.

B2 registered an OD450 of 0.05 OD450.

The molecule B3 returned an OD450 of 0.04 OD450.

In turn, B4 showed an OD450 of 0.05 OD450.

The target in a further test is T2, human MSLN-R1-his protein. The experiment in a line: ELISA, coated antigen; antibody 0.01 nM.
Regarding B1, the OD450 is 0.05 OD450.

As to B2, the OD450 is 0.04 OD450.

The molecule B3 returned an OD450 of 0.04 OD450.

Molecule B4 had an OD450 of 0.05 OD450.

For a further test, the target named is T3, human MSLN-FL-his protein. The experiment in a line: ELISA, coated antigen; no antibody (blank, column 'none').
As for B1, the OD450 stood at 0.06 OD450.

Consider B2, for which the OD450 stood at 0.05 OD450.

Molecule B3 came in with an OD450 of 0.05 OD450.

Consider B4, for which the OD450 amounted to 0.06 OD450.

The next test has as its target T3, human MSLN-FL-his protein. Briefly: ELISA, coated antigen; antibody 0.1 nM.
As for B1, the OD450 was 1.57 OD450.

In turn, B2 had an OD450 of 0.04 OD450.

Turning to B3, the OD450 turned out to be 2.4 OD450.

B4 gave an OD450 of 0.06 OD450.

Another test concerns the target T2, human MSLN-R1-his protein. Briefly: ELISA, coated antigen; no antibody (blank, column 'none').
The molecule B1 yielded an OD450 of 0.07 OD450.

Molecule B2 came in with an OD450 of 0.04 OD450.

In turn, B3 gave an OD450 of 0.04 OD450.

The molecule B4 yielded an OD450 of 0.06 OD450.
